Publication PMC11339278 (2024)

T1: SNX17 full length (residue 1-470) with an intramolecular decaHis tag (human, UniProt Q15036 1-470)
T1 chain: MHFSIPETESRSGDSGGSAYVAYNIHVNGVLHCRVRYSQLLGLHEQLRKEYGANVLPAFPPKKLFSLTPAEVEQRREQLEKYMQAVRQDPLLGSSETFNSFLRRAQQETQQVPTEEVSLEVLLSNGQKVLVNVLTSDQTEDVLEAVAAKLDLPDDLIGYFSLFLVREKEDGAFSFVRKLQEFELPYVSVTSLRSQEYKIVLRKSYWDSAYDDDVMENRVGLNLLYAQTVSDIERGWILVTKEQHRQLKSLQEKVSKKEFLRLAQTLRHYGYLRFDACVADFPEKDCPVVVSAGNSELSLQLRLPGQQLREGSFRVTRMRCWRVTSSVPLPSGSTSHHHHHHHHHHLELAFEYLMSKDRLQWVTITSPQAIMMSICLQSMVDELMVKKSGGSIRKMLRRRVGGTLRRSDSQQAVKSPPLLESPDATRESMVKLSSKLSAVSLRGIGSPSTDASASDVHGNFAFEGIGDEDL

T2: SNX17ΔC (residue 1-390) with an intramolecular decaHis tag (human, UniProt Q15036 1-390)
T2 chain: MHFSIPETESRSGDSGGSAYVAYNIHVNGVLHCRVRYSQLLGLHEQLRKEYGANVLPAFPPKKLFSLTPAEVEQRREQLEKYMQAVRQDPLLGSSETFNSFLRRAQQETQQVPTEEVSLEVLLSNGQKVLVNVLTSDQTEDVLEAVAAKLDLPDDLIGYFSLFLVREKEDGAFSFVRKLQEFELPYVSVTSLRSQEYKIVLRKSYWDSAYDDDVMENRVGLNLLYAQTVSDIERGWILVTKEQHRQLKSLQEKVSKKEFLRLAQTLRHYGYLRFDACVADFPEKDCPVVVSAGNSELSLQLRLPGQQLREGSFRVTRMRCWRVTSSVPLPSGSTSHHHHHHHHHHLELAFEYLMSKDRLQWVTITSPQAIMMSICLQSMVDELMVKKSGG


What was measured:
CCDC22 (endogenous) = experiment: GFP-nanotrap pull-down, quantitative western blot; settings: HEK293T cells, transient co-transfection; n = 3; parent: est. 1.0; read off a plot
CCDC93 (endogenous) = experiment: GFP-nanotrap pull-down, quantitative western blot; settings: HEK293T cells, transient co-transfection; n = 3; parent: est. 1.0; read off a plot
VPS29 (endogenous) = experiment: GFP-nanotrap pull-down, quantitative western blot; settings: HEK293T cells, transient co-transfection; n = 3; parent: est. 1.0; read off a plot
[1] = biological target: T1, SNX17 full length (residue 1-470) with …; experiment: ITC
[2] = biological target: T2, SNX17ΔC (residue 1-390) with an …; experiment: ITC
[3] = biological target: SNX17 full length (residue 1-470) with an intramolecular decaHis tag (human) (UniProt Q15036); experiment: ITC; APP or LRP1 peptide at 250 μM injected into 20 μM SNX17 FL or SNX17ΔC; 13 x 3.22 μL; 10 °C; 500 mM NaCl, 100 mM Tris pH 8.0, 5% glycerol; single site binding model
[4] = biological target: SNX17ΔC (residue 1-390) with an intramolecular decaHis tag (human) (UniProt Q15036); experiment: as above
[5] = biological target: SNX17 full length (residue 1-470) with an intramolecular decaHis tag (human) (UniProt Q15036); experiment: ITC; Microcal PEAQ, 10 °C, 500 mM NaCl, 100 mM Tris pH 8.0, 5% glycerol; 250 µM APP or LRP1 peptide, or 2 mM SNX17 tail peptide, injected into 20 µM SNX17 FL or SNX17ΔC; single site binding model
[6] = biological target: SNX17ΔC (residue 1-390) with an intramolecular decaHis tag (human) (UniProt Q15036); experiment: ITC; 2 mM SNX17 tail peptide injected into 20 μM SNX17 FL or SNX17ΔC; 13 x 3.22 μL; 10 °C; 500 mM NaCl, 100 mM Tris pH 8.0, 5% glycerol; single site binding model

ratio to parent (CCDC22 (endogenous))	ratio to parent (CCDC93 (endogenous))	ratio to parent (VPS29 (endogenous))	Kd [1]	Kd [2]	Kd [3]	Kd [4]	fold lower affinity than for SNX17ΔC [5]	Kd [6]	Molecule
0.75	0.73	0.62							VPS35L-GFP (from UniProt Q7Z3J2-1) W280A
1	1.1	1.1							VPS35L-GFP (from UniProt Q7Z3J2-1) R248A
0.95	0.88	0.97							VPS35L-GFP (from UniProt Q7Z3J2-1) K283E
			14.8 µM	4.74 µM	16 µM	7.03 µM	2 fold		NGYENPTYKFFEQM [APP cargo recognition peptide (755-768)]
			13.6 µM	3.64 µM	14.3 µM	4.6 µM	2 fold		VEIGNPTYKMYEGG [LRP1 cargo recognition peptide (4466-4479)]
				116 µM				189 µM	SASDVHGNFAFEGIGDEDL [synthetic peptide of the SNX17 tail (452-470)]
